Earlier results, collected in publication PMC2846211.

Molecular target: DNA polymerase gamma accessory subunit (Homo sapiens) (UniProt Q9UHN1)
UniProt Q9UHN1, sequence (Q9UHN1 2-485): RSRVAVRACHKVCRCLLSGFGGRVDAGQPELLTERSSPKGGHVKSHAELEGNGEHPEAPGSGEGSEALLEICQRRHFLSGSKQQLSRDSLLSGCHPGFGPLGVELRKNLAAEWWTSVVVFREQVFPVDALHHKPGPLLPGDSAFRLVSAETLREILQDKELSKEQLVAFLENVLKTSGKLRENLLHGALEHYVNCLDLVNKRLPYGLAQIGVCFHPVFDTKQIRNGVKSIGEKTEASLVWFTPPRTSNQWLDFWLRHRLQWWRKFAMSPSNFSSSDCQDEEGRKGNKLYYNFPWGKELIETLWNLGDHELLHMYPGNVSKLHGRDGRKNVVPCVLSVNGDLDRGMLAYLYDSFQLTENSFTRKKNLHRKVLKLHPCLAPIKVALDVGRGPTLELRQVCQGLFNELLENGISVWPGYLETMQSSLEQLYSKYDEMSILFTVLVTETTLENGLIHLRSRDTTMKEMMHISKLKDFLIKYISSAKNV

Substance: DNA polymerase gamma catalytic subunit (from UniProt P54098)
- Kd: 35 nM
